Assay results from the Human Domainome abundance scans (Beltran et al. 2025).
± gives the uncertainty stated by the source.

B1: SAM and SH3 domain-containing protein 1, residues 630 to 700; numbered along this chain, O94885 (parent)
chain: GRPPQPKSVEDLLDRINLKEHMPTFLFNGYEDLDTFKLLEEEDLDELNIRDPEHRAVLLTAVELLQEYDSN

Variants of: B1
Experiment: abundance fitness (aPCA) (normalised: wild type 0, dead -1); higher = more abundant; growth selection in yeast, the domain comes from the species named
Conditions: Homo sapiens

Abundance fitness, by site and new letter:
R15: E -0.07 ± 0.055; F -0.286 ± 0.053; G -0.342 ± 0.049; H -0.342 ± 0.054; I -0.23 ± 0.051; K -0.036 ± 0.049; L -0.223 ± 0.037; M 0.142 ± 0.042; N -0.075 ± 0.046; P -0.828 ± 0.072; Q -0.017 ± 0.045; S 0.116 ± 0.033; T -0.164 ± 0.04; V -0.381 ± 0.046; W -0.411 ± 0.071; Y -0.3 ± 0.053
I16: A -0.424 ± 0.062; C -0.067 ± 0.063; D -0.703 ± 0.15; E -0.595 ± 0.1; F -0.266 ± 0.064; G -0.674 ± 0.085; H -0.278 ± 0.069; K -0.735 ± 0.097; L 0.128 ± 0.038; M -0.325 ± 0.062; N -0.326 ± 0.067; P -0.994 ± 0.099; Q -0.682 ± 0.078; T -0.589 ± 0.076; V -0.199 ± 0.052; W -0.611 ± 0.088; Y -0.009 ± 0.058
N17: A -0.349 ± 0.046; C -0.486 ± 0.068; D -0.234 ± 0.057; E -0.333 ± 0.063; F -0.726 ± 0.085; H -0.2 ± 0.049; I -0.851 ± 0.086; K -0.341 ± 0.051; L -0.891 ± 0.059; P -1.08 ± 0.094; Q -0.289 ± 0.053; R -0.645 ± 0.051; S -0.279 ± 0.04; T -0.842 ± 0.064; V -0.817 ± 0.062; W -0.956 ± 0.096; Y -0.904 ± 0.086
L18: A -0.804 ± 0.064; C -0.523 ± 0.066; E -0.797 ± 0.092; G -0.89 ± 0.064; H -0.714 ± 0.076; I -0.716 ± 0.077; K -0.77 ± 0.077; M 0.158 ± 0.044; N -0.777 ± 0.081; P -0.996 ± 0.085; Q -0.652 ± 0.074; R -1.02 ± 0.066; T -0.73 ± 0.06; V -0.742 ± 0.052; W -0.853 ± 0.089; Y -0.863 ± 0.089
K19: A -0.055 ± 0.039; C -0.419 ± 0.056; D -0.643 ± 0.079; E -0.434 ± 0.073; F -0.654 ± 0.061; G -0.236 ± 0.051; H -0.262 ± 0.05; I -0.073 ± 0.042; L 0.127 ± 0.031; M -0.058 ± 0.043; N -0.211 ± 0.047; P -0.279 ± 0.043; Q 0.002 ± 0.044; R -0.032 ± 0.035; S 0.085 ± 0.033; T 0.042 ± 0.036; V -0.293 ± 0.042; W -0.607 ± 0.072; Y -0.532 ± 0.06
E20: A -0.699 ± 0.084; C -0.124 ± 0.063; D -0.498 ± 0.11; F -0.502 ± 0.071; G -0.673 ± 0.094; H -0.484 ± 0.074; I -0.244 ± 0.061; K -0.755 ± 0.11; L -0.559 ± 0.063; M -0.212 ± 0.064; N -0.455 ± 0.084; R -0.596 ± 0.064; S -0.332 ± 0.053; T -0.48 ± 0.065; V -0.203 ± 0.054; W -0.879 ± 0.13; Y -0.84 ± 0.1
H21: A -0.85 ± 0.068; C -0.536 ± 0.058; D -0.889 ± 0.097; E -0.689 ± 0.09; F -0.134 ± 0.046; I -0.459 ± 0.056; K -0.712 ± 0.075; M -0.085 ± 0.046; N -0.689 ± 0.071; P -0.798 ± 0.065; R -0.921 ± 0.056; S -0.785 ± 0.05; T -0.685 ± 0.061; V -0.607 ± 0.056; W -0.248 ± 0.047
M22: C -0.135 ± 0.043; D -0.749 ± 0.077; E -0.213 ± 0.054; F 0.081 ± 0.043; G -0.346 ± 0.042; H -0.313 ± 0.049; I 0.131 ± 0.039; K -0.252 ± 0.055; L 0.377 ± 0.032; N -0.503 ± 0.056; P -0.999 ± 0.087; Q -0.366 ± 0.056; R -0.612 ± 0.046; S -0.375 ± 0.04; T 0.009 ± 0.04; V 0.046 ± 0.035; W 0.281 ± 0.041; Y 0.277 ± 0.038
P23: A 0.113 ± 0.043; D 0.199 ± 0.047; E 0.282 ± 0.049; F -0.434 ± 0.057; G 0.039 ± 0.043; H -0.243 ± 0.052; I -0.398 ± 0.063; K 0.043 ± 0.053; L -0.056 ± 0.037; M -0.268 ± 0.061; N 0.102 ± 0.043; Q -0.017 ± 0.056; R -0.225 ± 0.045; S 0.038 ± 0.037; T -0.019 ± 0.04; V -0.433 ± 0.049; W -0.103 ± 0.061; Y -0.271 ± 0.052
T24: C -0.474 ± 0.057; D -0.622 ± 0.064; E -0.435 ± 0.077; G -0.713 ± 0.056; H -0.698 ± 0.064; K -0.079 ± 0.046; L -0.367 ± 0.04; M -0.379 ± 0.056; N -0.314 ± 0.051; P -0.88 ± 0.069; Q -0.544 ± 0.064; R -0.367 ± 0.04; S -0.464 ± 0.044; V -0.179 ± 0.041; W -0.892 ± 0.095; Y -0.98 ± 0.097
F25: A -0.837 ± 0.072; C -0.701 ± 0.08; D -0.672 ± 0.093; E -0.623 ± 0.094; G -0.882 ± 0.076; H -0.924 ± 0.11; I -0.687 ± 0.081; K -0.784 ± 0.071; L -0.266 ± 0.041; M -0.676 ± 0.073; N -0.612 ± 0.072; P -0.925 ± 0.084; Q -0.778 ± 0.078; S -0.706 ± 0.056; T -0.59 ± 0.061; V -0.758 ± 0.063; W -0.891 ± 0.088; Y -0.893 ± 0.091
L26: A -0.117 ± 0.04; C -0.464 ± 0.073; D -0.667 ± 0.089; E -0.188 ± 0.05; F -0.167 ± 0.054; G -0.697 ± 0.06; H -0.44 ± 0.066; K 0.034 ± 0.044; M -0.043 ± 0.045; P -0.825 ± 0.073; Q -0.11 ± 0.049; R -0.111 ± 0.039; S -0.337 ± 0.045; T -0.225 ± 0.043; V 0.034 ± 0.037; W -0.533 ± 0.064; Y -0.181 ± 0.055
F27: C 0.272 ± 0.04; D 0.446 ± 0.046; E 0.491 ± 0.047; G 0.166 ± 0.039; H 0.246 ± 0.042; I 0.157 ± 0.045; K 0.507 ± 0.04; L 0.346 ± 0.031; M 0.327 ± 0.041; N 0.418 ± 0.04; P -0.655 ± 0.061; Q 0.393 ± 0.043; R 0.38 ± 0.033; S 0.406 ± 0.032; T 0.341 ± 0.036; V 0.235 ± 0.037; W -0.449 ± 0.054; Y 0.122 ± 0.045
N28: A -0.006 ± 0.04; C -0.582 ± 0.065; D -0.812 ± 0.091; E -0.647 ± 0.098; F -0.426 ± 0.062; G -0.157 ± 0.043; H 0.109 ± 0.041; I -1.08 ± 0.11; K -0.426 ± 0.064; L -0.855 ± 0.058; M -0.687 ± 0.081; P -0.856 ± 0.075; Q -0.644 ± 0.077; R -0.607 ± 0.049; S -0.395 ± 0.039; T -0.831 ± 0.069; V -0.939 ± 0.076; W -0.553 ± 0.071; Y -0.208 ± 0.048
G29: A -0.806 ± 0.062; C -1.12 ± 0.13; D -0.837 ± 0.1; E -0.844 ± 0.1; F -1.2 ± 0.14; H -0.831 ± 0.081; I -0.893 ± 0.1; K -0.925 ± 0.11; L -0.907 ± 0.063; M -0.739 ± 0.089; N -0.762 ± 0.09; P -0.967 ± 0.08; Q -0.959 ± 0.093; S -0.834 ± 0.059; T -0.917 ± 0.073; V -1.17 ± 0.089; W -0.937 ± 0.11; Y -0.895 ± 0.1
Y30: A -0.92 ± 0.076; C -0.704 ± 0.076; D -0.705 ± 0.077; E -0.515 ± 0.092; F 0.058 ± 0.044; G -0.987 ± 0.076; H -0.737 ± 0.071; I 0.042 ± 0.043; K -0.901 ± 0.099; L -0.557 ± 0.049; M -0.568 ± 0.074; N -0.833 ± 0.08; P -0.767 ± 0.081; R -0.891 ± 0.068; S -0.706 ± 0.052; T -0.906 ± 0.07; W -0.012 ± 0.054
E31: A 0.207 ± 0.033; D 0.129 ± 0.042; G 0.313 ± 0.035; H 0.195 ± 0.038; I -0.288 ± 0.049; K 0.124 ± 0.045; L -0.37 ± 0.036; M -0.158 ± 0.046; N 0.171 ± 0.04; P -0.15 ± 0.039; Q 0.029 ± 0.044; R 0.127 ± 0.032; S 0.196 ± 0.032; T 0.251 ± 0.033; V -0.003 ± 0.035; W -0.248 ± 0.049; Y -0.124 ± 0.042
D32: A -0.579 ± 0.056; C -0.292 ± 0.055; E -0.275 ± 0.055; F -0.803 ± 0.092; G -0.585 ± 0.055; H -0.187 ± 0.048; I -0.568 ± 0.079; K -0.197 ± 0.05; L -0.767 ± 0.046; M -0.682 ± 0.06; N -0.085 ± 0.049; Q -0.382 ± 0.047; R -0.268 ± 0.038; S 0.094 ± 0.033; T 0.172 ± 0.036; V -0.788 ± 0.06; W -0.75 ± 0.069; Y -0.776 ± 0.07
L33: A -0.883 ± 0.087; C -0.881 ± 0.11; D -0.76 ± 0.092; E -0.962 ± 0.14; F -0.697 ± 0.087; H -0.791 ± 0.083; I -0.187 ± 0.056; K -1 ± 0.13; M -0.64 ± 0.084; N -0.764 ± 0.081; P -0.896 ± 0.095; Q -0.73 ± 0.11; R -0.926 ± 0.068; S -0.812 ± 0.066; T -0.828 ± 0.08; V -0.607 ± 0.058; W -1.19 ± 0.17; Y -1.15 ± 0.12
D34: A -0.145 ± 0.04; C -0.468 ± 0.061; E 0.041 ± 0.048; H -0.426 ± 0.049; I -0.793 ± 0.067
